Experiments:
α-thrombin [1] = target: α-thrombin (UniProt P00734); test: ELISA; competition: HCII 1-75 immobilised on microtiter wells; competitor peptides added with 5 nM α-thrombin; ratio of absorbance with and without competitor; IC50 by linear regression of log-transformed plots
α-thrombin [2] = target: α-thrombin (UniProt P00734)
α-thrombin [3] = target: α-thrombin (UniProt P00734); test: SPR; competition: BIAcore X, 25°C; biotinylated HCII 1-75 on streptavidin-coated chip; peptides combined with 250 nM thrombin immediately before flowing over the chip; Ki from IC50 and the KD of 340 nM
[4] = target: Biotinylated HCII 1-75 (human); test: SPR; BIAcore X, 25°C; biotinylated HCII 1-75 on streptavidin-coated chip; thrombin 0-30 μM flowed at 20 μL/minute in 10 mM HEPES, 150 mM NaCl, 0.005% Tween-20, pH 7.7; one site binding model of plateau responses
α-thrombin [5] = target: α-thrombin (UniProt P00734); remark: listed apart in the source
α-thrombin [6] = target: α-thrombin (UniProt P00734); remark: listed apart in the source

Kd [4] [nM] | Substance | IC50 (α-thrombin [1]) [nM] | concentration required to double the thrombin clotting time of diluted citrated human plasma (α-thrombin [2]) [µM] | Ki (α-thrombin [3]) [nM] | also measured
– | sulfo-Hir 54-65 (synthetic peptide containing the C-terminal 12 residues of hirudin variant 1, with Tyr63 sulfated) (from UniProt P01050 54-65) | 140 | 0.15 | 54 | –
340 | α-thrombin (from UniProt P00734 364-622) (enzyme) | – | – | – | –
330 | FPR-ck-thrombin (thrombin inactivated at its active site using D-Phe-L-Pro-L-Arg chloromethylketone) (from UniProt P00734 364-622) (enzyme) | – | – | – | –
– | HCII 1-75 (recombinant peptide containing the first 75 residues of human heparin cofactor II and a nonapeptide N-terminal MGSH6 tag) (domain or fragment) | 11000 | 13 | 2600 | concentration required to double the thrombin clotting time, unmodified polypeptide compared with the biotinylated one (data not shown) (α-thrombin [5]): 12.8 µM; fold reduction of the apparent second-order rate constant of inhibition of 14 nM thrombin by 140 nM plasma-derived HCII with 55 μg/mL standard heparin, 250 μM peptide (Figure 5A) (α-thrombin [6]): 2.8 fold; fold reduction of the apparent second-order rate constant of inhibition of thrombin by plasma-derived HCII with 1.4 μM dermatan sulfate, 250 μM peptide (Figure 5B) (α-thrombin [6]): 7 fold
– | Biotinylated HCII 1-75 (domain or fragment) | – | – | – | concentration required to double the thrombin clotting time (data not shown) (α-thrombin [5]): 11.7 µM
